Patent US20080254026A1 (published 2008)

Columns and labels:
[1] = target: human CD40 on normal human B cells (PBMC or purified B cells) (human, UniProt P25942 20-277); assay: cell-based or functional assay
[2] = target: T1, Recombinant soluble CD40-his (human, UniProt P25942 21-193); assay: Biacore, antibody captured on protein A CM5 chip, CD40-his as analyte, 1:1 model/global fit
T1 construct: Analyte in the Biacore experiments; not shown: his tag
Experimental: (§1) Protein A was immobilized onto CM5 biosensor chips via amine coupling. Human anti-CD40 monoclonal antibodies, at 1.5 μg/ml, were captured onto the modified biosensor surface for 1.5 minutes at 10 μl/min. Recombinant soluble CD40-his was flowed over the biosensor surface at varying concentrations. Antibody and antigen were diluted in 0.01 M HEPES pH 7.4, 0.15 M NaCl, 3 mM EDTA, 0.005% Surfactant P20 (HBS-EP). Kinetic and affinity constants were determined using the Biaevaluation software with a 1:1 interaction model/global fit.

[3] = target: human CD40 antigen expressed on the surface of cells (human, UniProt P25942 20-277); assay: cell-based or functional assay
[4] = target: T2, CD40 extracellular Domain 1 GST fusion protein (human); assay: SDS-PAGE and Western blot of insect cell supernatant with GST domain fusions
T2 construct: Expressed in insect cells with a GP67 secretion signal; not shown: GST fusion partner
T2 chain: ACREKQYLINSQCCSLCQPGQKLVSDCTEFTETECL
Experimental: (§2) To map the antigenic region on CD40, the four extracellular domains of CD40 were cloned and expressed in insect cells as GST fusion proteins. The secretion of the four domains was ensured with a GP67 secretion signal. Insect cell supernatant was analyzed by SDS-PAGE and western blot analysis to identify the domain containing the epitope.

[5] = target: T3, CD40 extracellular Domain 4 GST fusion protein (human, UniProt P25942 145-187); assay: as above
T3 construct: not shown: GST fusion partner
T3 chain: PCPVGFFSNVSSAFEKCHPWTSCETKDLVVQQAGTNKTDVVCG
Experimental: as §2

[6] = target: T4, CD40 extracellular Domain 3 GST fusion protein (human, UniProt P25942 104-144); assay: as above
T4 construct: not shown: GST fusion partner
T4 chain: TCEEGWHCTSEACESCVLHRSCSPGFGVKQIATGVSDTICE
Experimental: as §2

[7] = target: T5, SPOTs peptide, spot 20 (HKYCDPNLGL) (human); assay: SPOTs peptide membrane, antibody at 10 µg/ml
T5 peptide: HKYCDPNLGL
Source text: (§3) SPOTs membranes (Sigma) containing thirty-five 10 mer peptides with a 1-amino-acid offset were generated.

[8] = target: T6, SPOTs peptide, spot 19 (QHKYCDPNLG) (human); assay: SPOTs peptide membrane, antibody at 10 µg/ml
T6 peptide: QHKYCDPNLG
Source text: as §3

[9] = target: T7, SPOTs peptide, spot 21 (KYCDPNLGLR) (human); assay: SPOTs peptide membrane, antibody at 10 µg/ml
T7 peptide: KYCDPNLGLR
Source text: as §3

[10] = target: T8, SPOTs peptide, spot 22 (YCDPNLGLRV) (human); assay: SPOTs peptide membrane, antibody at 10 µg/ml
T8 peptide: YCDPNLGLRV
Source text: as §3

[11] = target: T9, SPOTs peptide, spot 18 (HQHKYCDPNL) (human); assay: SPOTs peptide membrane, antibody at 10 µg/ml
T9 peptide: HQHKYCDPNL
Source text: as §3

[12] = target: T10, CD40 extracellular Domain 2 GST fusion protein (human, UniProt P25942 61-104); assay: Western blot of GST domain fusions
T10 construct: Expressed in insect cells with a GP67 secretion signal; not shown: GST fusion partner
T10 chain: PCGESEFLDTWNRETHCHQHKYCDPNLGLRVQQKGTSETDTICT

[13] = target: T1, Recombinant soluble CD40-his; assay: Biacore
Experimental: as §1

[14] = target: T11, CD40 extracellular Domain 2 GST fusion protein (human, UniProt P25942 61-104); assay: western blot of CD40 Domain 2, reduced
T11 construct: Expressed in insect cells with a GP67 secretion signal; not shown: glutathione S-transferase (GST) fusion partner
T11 chain: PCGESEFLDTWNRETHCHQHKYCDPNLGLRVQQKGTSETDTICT

[15] = target: T12, CD40 extracellular Domain 1 GST fusion protein (human); assay: western blot of CD40 domain GST fusion proteins
T12 construct: Expressed in insect cells with a GP67 secretion signal; not shown: glutathione S-transferase (GST) fusion partner
T12 chain: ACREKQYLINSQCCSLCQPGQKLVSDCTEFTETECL
Experimental: as §2

[16] = target: T13, CD40 extracellular Domain 3 GST fusion protein (human, UniProt P25942 104-144); assay: western blot of CD40 domain GST fusion proteins
T13 construct: Expressed in insect cells with a GP67 secretion signal; not shown: glutathione S-transferase (GST) fusion partner
T13 chain: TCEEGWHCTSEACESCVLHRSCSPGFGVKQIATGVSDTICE
Experimental: as §2

[17] = target: T14, CD40 extracellular Domain 4 GST fusion protein (human, UniProt P25942 145-187); assay: western blot of CD40 domain GST fusion proteins
T14 construct: Expressed in insect cells with a GP67 secretion signal; not shown: glutathione S-transferase (GST) fusion partner
T14 chain: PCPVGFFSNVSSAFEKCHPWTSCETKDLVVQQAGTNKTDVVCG
Experimental: as §2

[18] = target: T15, CD40 Domain 2 SPOTs peptide, spot 19 (QHKYCDPNLG) (human); assay: SPOTs membrane of 10mer peptides of CD40 Domain 2; spot 19 listed among the results
T15 construct: 10mer synthesized on a SPOTs membrane; also called Spot Number 19
T15 peptide: QHKYCDPNLG
Source text: as §3

[19] = target: T16, CD40 Domain 2 SPOTs peptide, spot 22 (YCDPNLGLRV) (human); assay: SPOTs membrane of 10mer peptides of CD40 Domain 2; spot 22 listed among the results
T16 construct: 10mer synthesized on a SPOTs membrane; also called Spot Number 22
T16 peptide: YCDPNLGLRV
Source text: as §3

[20] = target: T11, CD40 extracellular Domain 2 GST fusion …; assay: western blot of CD40 domain GST fusion proteins (Domain 2)
Experimental: as §2

[21] = target: T17, CD40 Domain 2 SPOTs peptide, spot 20 (HKYCDPNLGL) (human); assay: SPOTs membrane of 10mer peptides of CD40 Domain 2; spot 20 listed among the results
T17 construct: 10mer synthesized on a SPOTs membrane; also called Spot Number 20
T17 peptide: HKYCDPNLGL
Source text: as §3

[22] = target: T18, CD40 Domain 2 SPOTs peptide, spot 18 (HQHKYCDPNL) (human); assay: SPOTs membrane of 10mer peptides of CD40 Domain 2; spot 18 listed among the results
T18 construct: 10mer synthesized on a SPOTs membrane; also called Spot Number 18
T18 peptide: HQHKYCDPNL
Source text: as §3

[23] = target: T19, CD40 Domain 2 SPOTs peptide, spot 21 (KYCDPNLGLR) (human); assay: SPOTs membrane of 10mer peptides of CD40 Domain 2; spot 21 listed among the results
T19 construct: 10mer synthesized on a SPOTs membrane; also called Spot Number 21
T19 peptide: KYCDPNLGLR
Source text: as §3

[24] = target: T20, CD40 Domain 2 10-mer peptide HKYCDPNLGL (spot 20) (human); assay: SPOTs membrane of 10-mer peptides, spot 20 listed as recognised
T20 construct: Synthetic 10-mer on a SPOTs membrane (Sigma)
T20 peptide: HKYCDPNLGL
Source text: as §3

[25] = target: T21, CD40 Domain 2 10-mer peptide KYCDPNLGLR (spot 21) (human); assay: SPOTs membrane of 10-mer peptides, spot 21 listed as recognised
T21 construct: Synthetic 10-mer on a SPOTs membrane (Sigma)
T21 peptide: KYCDPNLGLR
Source text: as §3

[26] = target: T22, CD40 Domain 2 10-mer peptide YCDPNLGLRV (spot 22) (human); assay: SPOTs membrane of 10-mer peptides, spot 22 listed as recognised
T22 construct: Synthetic 10-mer on a SPOTs membrane (Sigma)
T22 peptide: YCDPNLGLRV
Source text: as §3

[27] = target: T5, SPOTs peptide, spot 20 (HKYCDPNLGL); assay: SPOTs peptide membrane, stripped and reprobed
Source text: as §3

[28] = target: T7, SPOTs peptide, spot 21 (KYCDPNLGLR); assay: SPOTs peptide membrane, stripped and reprobed
Source text: as §3

[29] = target: T8, SPOTs peptide, spot 22 (YCDPNLGLRV); assay: SPOTs peptide membrane, stripped and reprobed
Source text: as §3

T1 sequence (P25942 21-193 limits assumed): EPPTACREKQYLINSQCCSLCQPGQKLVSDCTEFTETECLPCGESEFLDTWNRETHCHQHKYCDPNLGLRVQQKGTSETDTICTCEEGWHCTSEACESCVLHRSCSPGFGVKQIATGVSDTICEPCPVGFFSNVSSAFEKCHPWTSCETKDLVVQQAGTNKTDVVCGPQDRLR
Chain of human CD40 on normal human B cells (PBMC or purified B cells) (P25942 20-277): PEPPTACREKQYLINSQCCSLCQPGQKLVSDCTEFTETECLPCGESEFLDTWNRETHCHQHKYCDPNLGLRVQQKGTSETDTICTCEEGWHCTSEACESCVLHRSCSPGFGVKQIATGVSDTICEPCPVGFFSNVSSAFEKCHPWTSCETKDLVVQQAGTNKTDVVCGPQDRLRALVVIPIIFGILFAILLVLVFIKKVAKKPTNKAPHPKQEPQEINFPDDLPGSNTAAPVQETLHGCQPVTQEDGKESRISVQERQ
Chain of human CD40 antigen expressed on the surface of cells (P25942 20-277): as above

B1: monoclonal antibody CHIR-12.12 (antibody, human IgG1, kappa)
heavy: not shown
light: DIVMTQSPLSLTVTPGEPASISCRSSQSLLYSNGYNYLDWYLQKPGQSPQVLISLGSNRASGVPDRFSGSGSGTDFTLKISRVEAEDVGVYYCMQARQTPFTFGPGTKVDIRRTVAAPSVFIFPPSDEQLKSGTASVVCLLNNFYPREAKVQWKVDNALQSGNSQESVTEQDSKDSTYSLSSTLTLSKADYEKHKVYACEVTHQGLSSPVTKSFNRGEC
[1]
  IC50(nM) for inhibition of CD40L-induced PBMC proliferation; PBMC-025 Donor#1: 24.2 nM
  IC50(nM) for inhibition of CD40L-induced PBMC proliferation; PBMC-025 Donor#2: 66 nM
  IC50(nM) for inhibition of CD40L-induced PBMC proliferation; PBMC-026 Donor#1: 45 nM
  IC50(nM) for inhibition of CD40L-induced PBMC proliferation; PBMC-026 Donor#2: 84 nM
  IC50(nM) for inhibition of CD40L-induced PBMC proliferation; PBMC-028 Donor#1: 30.1 nM
  IC50(nM) for inhibition of CD40L-induced PBMC proliferation; PBMC-028 Donor#2: 34.7 nM
  IC50(nM) for inhibition of CD40L-induced PBMC proliferation; PBMC-029 Donor#1: 28.1 nM
  IC50(nM) for inhibition of CD40L-induced PBMC proliferation; PBMC-029 Donor#2: 55.4 nM
  IC50(nM) for inhibition of CD40L-induced PBMC proliferation; PBMC-030 Donor#1: 35.5 nM
  IC50(nM) for inhibition of CD40L-induced PBMC proliferation; PBMC-030 Donor#2: 103 nM
  IC50(nM) for inhibition of CD40L-induced PBMC proliferation; PBMC-032 Donor#1: 40.4 nM
  average IC50(nM) for inhibition of CD40L-induced PBMC proliferation: 49.6 nM

B2: monoclonal antibody CHIR-12.12 (antibody, human IgG1, kappa)
light: DIVMTQSPLSLTVTPGEPASISCRSSQSLLYSNGYNYLDWYLQKPGQSPQVLISLGSNRASGVPDRFSGSGSGTDFTLKISRVEAEDVGVYYCMQARQTPFTFGPGTKVDIRRTVAAPSVFIFPPSDEQLKSGTASVVCLLNNFYPREAKVQWKVDNALQSGNSQESVTEQDSKDSTYSLSSTLTLSKADYEKHKVYACEVTHQGLSSPVTKSFNRGEC
heavy: not shown
[2]
  Kd: 0.51 nM
[3]
  IC50: antibody concentration to inhibit 50% of CD-40 ligand-induced lymphocyte proliferation, average of 6 donors: 0.047 nM
[4]
  binding result: no binding
[5]
  binding result: no binding
[6]
  binding result: no binding
[7]
  binding result: binds
[8]
  binding result: binds
[9]
  binding result: binds
[10]
  binding result: binds
[11]
  binding result: binds
[12]
  binding result: binds
[13]
  Kd: 0.5 nM

B3: monoclonal antibody CHIR-5.9 (antibody, human IgG1, kappa)
heavy: not shown
light: AIVMTQPPLSSPVTLGQPASISCRSSQSLVHSDGNTYLNWLQQRPGQPPRLLIYKFFRRLSGVPDRFSGSGAGTDFTLKISRVEAEDVGVYYCMQVTQFPHTFGQGTRLEIKRTVAAPSVFIFPPSDEQLKSGTASVVCLLNNFYPREAKVQWKVDNALQSGNSQESVTEQDSKDSTYSLSSTLTLSKADYEKHKVYACEVTHQGLSSPVTKSFNRGEC
notes: Fully human IgG1 kappa anti-CD40 antibody; Leader residues (1-19 heavy, 1-20 light) left out as stated; also called mAb CHIR-5.9; CHIR-5.9/5.11
[14]
  binding result: binds
[15]
  binding result: no binding
[16]
  binding result: no binding
[17]
  binding result: no binding

B4: monoclonal antibody CHIR-12.12 (antibody, human IgG1, kappa)
heavy: not shown
light: DIVMTQSPLSLTVTPGEPASISCRSSQSLLYSNGYNYLDWYLQKPGQSPQVLISLGSNRASGVPDRFSGSGSGTDFTLKISRVEAEDVGVYYCMQARQTPFTFGPGTKVDIRRTVAAPSVFIFPPSDEQLKSGTASVVCLLNNFYPREAKVQWKVDNALQSGNSQESVTEQDSKDSTYSLSSTLTLSKADYEKHKVYACEVTHQGLSSPVTKSFNRGEC
notes: Fully human IgG1 kappa anti-CD40 antibody; Leader residues (1-19 heavy, 1-20 light) left out as stated
[18]
  binding result: binds
[19]
  binding result: binds
[20]
  binding result: binds
[21]
  binding result: binds
[22]
  binding result: binds
[15]
  binding result: no binding
[16]
  binding result: no binding
[17]
  binding result: no binding
[23]
  binding result: binds

B5: monoclonal antibody CHIR-5.9 (antibody, human IgG1, kappa)
light: AIVMTQPPLSSPVTLGQPASISCRSSQSLVHSDGNTYLNWLQQRPGQPPRLLIYKFFRRLSGVPDRFSGSGAGTDFTLKISRVEAEDVGVYYCMQVTQFPHTFGQGTRLEIKRTVAAPSVFIFPPSDEQLKSGTASVVCLLNNFYPREAKVQWKVDNALQSGNSQESVTEQDSKDSTYSLSSTLTLSKADYEKHKVYACEVTHQGLSSPVTKSFNRGEC
heavy: not shown
notes: Fully human IgG1 kappa anti-CD40 antibody; also called mAb CHIR-5.9
[24]
  binding result: binds
[25]
  binding result: binds
[26]
  binding result: binds

B6: monoclonal antibody CHIR-5.9 (antibody, human IgG1, kappa)
light: AIVMTQPPLSSPVTLGQPASISCRSSQSLVHSDGNTYLNWLQQRPGQPPRLLIYKFFRRLSGVPDRFSGSGAGTDFTLKISRVEAEDVGVYYCMQVTQFPHTFGQGTRLEIKRTVAAPSVFIFPPSDEQLKSGTASVVCLLNNFYPREAKVQWKVDNALQSGNSQESVTEQDSKDSTYSLSSTLTLSKADYEKHKVYACEVTHQGLSSPVTKSFNRGEC
heavy: not shown
notes: also called mAb 5.9
[2]
  Kd: 12.2 nM
[27]
  binding result: binds
[28]
  binding result: binds
[29]
  binding result: binds
[4]
  binding result: no binding
[5]
  binding result: no binding
[6]
  binding result: no binding
[12]
  binding result: binds
[13]
  Kd: 12 nM
